Data: US10874712B2, “Methods, compounds and compositions for modulating blood brain barrier integrity and re-myelination” (University Health Network, priority 2015, dated 2020)

How the values were obtained:
EAE-induced mice [1] = assay: Histological staining (H&E, Luxol Fast Blue) of cervical spinal cord, inflammatory index; format: in vivo, mouse; settings: EAE day 18; vs vehicle
Protocol: At day 18 post-EAE induction, mice were trans-cardially perfused with 20 mL PBS followed by 20 mL 4% paraformaldehyde in PBS (PFA) (Electron Microscopy Sciences) and 30 μm spinal cord cryosections were stained. The slides were washed in PBS for 3 min, followed by a 30 s wash in 50% ethanol (EtOH) and incubated overnight in Luxol Fast Blue (LFB) at 60° C. The sections were washed in 95% EtOH for 5 min, distilled water for 5 min prior to de-staining with […] for 10 min, and were then washed in 70% EtOH for 30 s, 5 min in MilliQ H2O, and sections were immersed in Harris Hematoxylin (Sigma-Aldrich) for 20 min and were rinsed in warm water to remove excess stain. Samples were dehydrated in 95% EtOH, immersed in alcoholic eosin Y (Sigma-Aldrich) for 15 s, dehydrated twice in 95% EtOH for 5 min, 100% EtOH for 5 min and xylene for 5 min. Slides were mounted with Permount (Fisher Scientific) and air-dried overnight at room temperature. Luxol Fast Blue (LFB) staining was quantified using relative staining intensity using Image J software. All intensities were normalized to a sham mouse spinal cord.
Cellular infiltration was quantified using an inflammatory index: 0, no inflammation; 1, cellular infiltration only in the perivascular areas and meninges; 2, mild cellular infiltration in the parenchyma (<10 cells); 3, moderate cellular infiltration in the parenchyma (10-49 cells); 4, moderate cellular infiltration in the parenchyma (50-99 cells); and 5, severe cellular infiltration in parenchyma (>100 cells).

EAE-induced mice [2] = assay: Immunohistochemistry of spinal cord for CD3, B220, CD11b infiltrates; format: in vivo, mouse; settings: EAE day 18; vs vehicle
Protocol: Spinal cords were isolated and post-fixed with 4% PFA overnight at 4° C., washed 3× with PBS and soaked in 30% sucrose in PBS for 48 h. Tissues were then embedded in Optimal Cutting Temperature (OCT) compound. Frozen sections of spinal cords were cut at 10-30 μm with a cryostat, mounted on gelatinized slides, dried for 2 h and stored at −80° C. Sections were then re-hydrated in PBS for 5 min and permeabilized with PBST (0.3% Triton X-100 in PBS) for 5 min. The tissues were then blocked (PBS, 0.3% Triton X-100, 3% FBS) for 1 h at room temperature and incubated with the following primary antibodies overnight at 4° C. in a humidified chamber: anti-CD3 (145-2C11, BioLegend); CD11b (M1/70, BioLegend); B220 (RA3-6B2, BioLegend), DAPI (MMS-435P, Sigma), Fibrinogen (D9542, Innovative Research).

EAE-induced mice [3] = assay: In vivo BBB permeability, fibrinogen extravasation in spinal cord; design: species or system mouse; settings: EAE day 18; treated every 3 days; vs vehicle
Protocol: To establish the role of RGMc on BBB permeability, 6-8 week old C57Bl/6 female mice induced with EAE and treated with sRGMc or vehicle (n=6 animals per group) were anesthetized 18 days post induction and trans-cardially perfused with 20 mL PBS followed by 20 mL 4% paraformaldehyde in PBS (PFA) (Electron Microscopy Sciences). Spinal cords were cryo-sectioned at 10 μm thickness and stored at −80° C. The sections were stained for Fibrinogen (Innovative Research); CD31 (Invitrogen); and DAPI (Sigma-Aldrich). All images were obtained using a BX61 confocal microscope (Olympus). CellSens software was used for quantification of cell area and pixel intensity. The area (number of pixels) and fluorescent intensity (mean pixel intensity) of the extravasation markers were measured using CellSens software (Olympus). The relative extent of fluorescent extravasation and BBB disruption was then calculated by multiplying the area with the fluorescent intensity.

[4] = test system: Claudin 5 in b.End3 cells; assay: Claudin 5 expression in endothelial cells by Western blot; format: cell-based, mouse; settings: incubation with RGM proteins, vs PBS
Protocol: Cells were pretreated for 6 h with PBS, RGMc, RGMa or RGMc+RGMa. Western blotting was performed on the lysates with Claudin-5 and GAPDH antibodies.
Next, the BBB permeability was assessed by injecting mice with BSA, RGMa, RGMa plus RGMc and subsequently followed by assessment of Texas dye leakage using widefield imaging as an indication of BBB integrity. […] Thus, Claudin 5 expression following RGMa/c treatments of murine-derived brain endothelial cells (b.End3) was studied. B.En3 cells were grown up to 80% confluency and were treated with overnight incubation with RGM proteins.

[5] = test system: mice with passively induced EAE; assay: Adoptive transfer EAE, infiltration of CellVue-labelled cells into spinal cord; format: in vivo, mouse; settings: treated every 3 days; sacrificed day 8 after transfer; vs PBS
Protocol: Briefly, donor animals were immunized with 100 ug MOG(35-55) and sacrificed at day 10. Splenocytes were harvested and re-stimulated for 3 days with 33 ug/mL MOG(35-55) in the presence of 20 ng/ml rmIL-23. Cells were then labelled with CellVue Maroon and injected into recipient animals treated with RGMc or vehicle as well as PTx on day 0 and day 2. Recipient animals were treated every 3 days and sacrificed on day 8 and spinal cords sectioned for immunofluorescence staining.
Having shown that RGMc levels regulate the extravasation of molecules through the BBB, its role on cellular infiltration was evaluated. To do so, adaptive transfer using spleenocyte cells from MOG treated animals was performed. After collection of splenocyte cells were re-stimulated for 3 days with MOG, stained with Cellvue Maroon and injected into recipient mice treated with pertussis toxin. Following injection, animals received either PBS (Control) or RGMc every 3 days. Eight days after transfer animals were sacrificed and cellular infiltration was monitored using Cellvue-reporter. […] Thus, treatment with RGMc prevented T cell infiltration towards the CNS.

rats subjected to MCAO = assay: MCAO, neurological deficit (Bederson test); format: in vivo, rat; settings: tail-vein injection of 70 μg, 7 day period, vs PBS
Protocol: In a separate experiment, whether RGMc treatment, which prevents BBB disruption following stroke, could lead to functional recovery (FIG. 25) was studied. Rats were subjected to MCAO and treated with either tail-vein injection of 70 μg of RGMc or control (PBS).

B1: sRGMc: truncated form of RGMc with the GPI anchor sequence removed, released as a soluble protein (SEQ ID NOs: 1 and 3) (protein, listed as Homo sapiens)
chain: CKILRCNAEYVSSTLSLRGGGSSGALRGGGGGGRGGGVGSGGLCRALRSYALCTRRTARTCRGDLAFHSAVHGIEDLMIQHNCSRQGPTAPPPPRGPALPGAGSGLPAPDPCDYEGRFSRLHGRPPGFLHCASFGDPHVRSFHHHFHTCRVQGAWPLLDNDFLFVQATSSPMALGANATATRKLTIIFKNMQECIDQKVYQAEVDNLPVAFEDGSINGGDRPGGSSLSIQTANPGNHVEIQAAYIGTTIIIRQTAGQLSFSIKVAEDVAMAFSAEQDLQLCVGGCPPSQRLSRSERNRRGAITIDTARRLCKEGLPVEDAYFHSCVFDVLISGDPNFTVAAQAALEDARAFLPDLEKLH
Question: With B1 as the molecule, how does the “extent of cellular infiltrates in cervical spinal cord” value (EAE-induced mice [1]) read?
Answer: The value was “significantly reduced”.

Question: What about the “extent of de-myelination (Luxol Fast Blue)” value (EAE-induced mice [1]) of the same molecule?
Answer: The value was “significantly reduced”.

Question: What about the inflammatory index score (EAE-induced mice [1]) of the same molecule?
Answer: Its inflammatory index score is “significantly lower”.

Question: And the “infiltration of B220+ cells into cervical spinal cords” value (EAE-induced mice [2])?
Answer: Its value is “significantly reduced”.

Question: What about the “infiltration of CD3+ cells into cervical spinal cords” value (EAE-induced mice [2]) of the same molecule?
Answer: The value was “significantly reduced”.

Question: And the “infiltration of Cd11b+ cells into cervical spinal cords” value (EAE-induced mice [2])?
Answer: Its value is “significantly reduced”.

Question: What about the fibrinogen extravasation (EAE-induced mice [3]) of the same molecule?
Answer: The fibrinogen extravasation was “significant decrease”.

Question: And the “Claudin 5 levels” value [4]?
Answer: Its value is “did affect Claudin5 levels”.

Question: And the “accumulation of Cellvue+ cells within the spinal cord” value [5]?
Answer: Its value is “did not show accumulation”.

Question: What about the “functional scores (Bederson test)” value (rats subjected to MCAO) of the same molecule?
Answer: The value was “significant (*p<0.05) improvement of functional scores”.
